We go through one substance from patent US7122363.

The target in experiment [1] is 63 kDa bovine brain CaM-PDE (expression product of p12.3a cDNA) (bovine) (UniProt Q01061). Put plainly: cell-based or functional assay.
Experiment [2] has as its target 59 kDa bovine lung CaM-PDE (expression product of p59KCAMPDE-2 cDNA) (bovine) (UniProt P14100). Briefly: cell-based or functional assay.

Chain of 59 kDa bovine lung CaM-PDE (expression product of p59KCAMPDE-2 cDNA) (bovine) (P14100 other isoform, or with tags, fused parts or gaps limits assumed): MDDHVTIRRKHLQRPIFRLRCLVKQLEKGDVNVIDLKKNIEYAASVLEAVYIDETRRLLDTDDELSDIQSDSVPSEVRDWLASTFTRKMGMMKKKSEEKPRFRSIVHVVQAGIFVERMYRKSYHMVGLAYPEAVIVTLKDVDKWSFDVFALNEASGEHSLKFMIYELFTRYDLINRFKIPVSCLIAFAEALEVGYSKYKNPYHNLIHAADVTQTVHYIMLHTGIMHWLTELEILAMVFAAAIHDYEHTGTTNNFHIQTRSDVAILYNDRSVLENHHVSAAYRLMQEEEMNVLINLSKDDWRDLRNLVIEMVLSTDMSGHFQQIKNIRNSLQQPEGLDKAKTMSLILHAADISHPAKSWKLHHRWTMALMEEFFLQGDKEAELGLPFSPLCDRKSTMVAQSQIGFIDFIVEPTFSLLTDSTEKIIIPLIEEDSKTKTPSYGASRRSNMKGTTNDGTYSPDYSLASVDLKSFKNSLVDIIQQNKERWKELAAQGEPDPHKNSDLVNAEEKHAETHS
Chain of 63 kDa bovine brain CaM-PDE (expression product of p12.3a cDNA) (bovine) (Q01061 whole entry): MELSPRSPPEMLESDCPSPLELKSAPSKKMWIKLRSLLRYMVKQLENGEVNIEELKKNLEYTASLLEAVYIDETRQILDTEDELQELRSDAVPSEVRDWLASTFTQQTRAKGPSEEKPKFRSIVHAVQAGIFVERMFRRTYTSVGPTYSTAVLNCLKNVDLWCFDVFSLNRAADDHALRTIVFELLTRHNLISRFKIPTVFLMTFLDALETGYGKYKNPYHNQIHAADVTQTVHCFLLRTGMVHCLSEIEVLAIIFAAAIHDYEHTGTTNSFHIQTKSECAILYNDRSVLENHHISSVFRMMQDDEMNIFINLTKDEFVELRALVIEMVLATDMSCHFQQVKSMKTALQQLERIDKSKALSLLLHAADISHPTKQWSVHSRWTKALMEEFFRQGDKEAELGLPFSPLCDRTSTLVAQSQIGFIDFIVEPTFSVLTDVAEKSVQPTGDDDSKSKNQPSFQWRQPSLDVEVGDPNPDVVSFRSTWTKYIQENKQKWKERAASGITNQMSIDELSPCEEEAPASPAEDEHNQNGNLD

In experiment [1], calmodulin gave a CaM-stimulated cAMP phosphodiesterase activity (homogenates of transfected COS-7 cells) of 15 fold and a CaM-stimulated cGMP phosphodiesterase activity (homogenates of transfected COS-7 cells) of 12 fold. This substance also displayed a cAMP hydrolytic activity (extracts of transfected COS-7 cells, 2 uM cAMP) in experiment [2] of 4 to 5 fold.
